Consider one substance from patent US12109327B2, “Scaffolds from self-assembling tetrapeptides support 3D spreading, osteogenic differentiation and angiogenesis of mesenchymal stem cells” (KING ABDULLAH UNIVERSITY OF SCIENCE AND TECHNOLOGY, priority 2020, dated 2024).

Non-standard residues stand in square brackets, D forms with d. Cha = N[C@@H](CC1CCCCC1)C(=O)O

A short description of data set [1]: Oscillatory rheological test of peptide hydrogel stiffness (storage modulus G′). The settings on record: for Storage modulus: 1 rad/s, 0.1% strain. The class given is physicochemical. The protocol:
Therefore, in one embodiment, the mechanical stiffness of each peptide hydrogel is assessed by the storage modulus (G′) at different concentrations.
The oscillatory rheological test was performed to determine the mechanical properties of the peptide hydrogels. The peptide hydrogels were measured on a TA Ares G2 rheometer with an 8 mm parallel-plate geometry and a 1.5 mm gap distance at a temperature of 22° C. All of the hydrogels were made inside a Sigmacote®-coated glass ring with 9 mm inner diameter 19 h prior to measurement. Six replicates with a volume of 150 μL were prepared for each sample. […]

The nature of data set [2]: Vial inversion test: gelation time and critical gelation concentration. The class given is physicochemical. The protocol: In one embodiment, an instant hydrogel formation can be observed when PBS buffer is added to the peptide solution. In one embodiment, the gelation time is determined using a vial inversion test performed at different peptide concentrations in 1×PBS to meet physiological conditions. FIG. 13 compares the gelation time of IVFK and IVZK at different concentration.
The lyophilized peptide powders were dissolved in Milli-Q® water by vortexing into a clear solution at room temperature. Then, 10× phosphate-buffered saline (PBS) was added to the aqueous peptide solution at a final volume ratio of peptide solution to 10×PBS of 9:1. The vial inversion test was performed with different peptide concentrations to find the critical gelation concentration (CGC). To study the spatial structure of the peptide solution during the assembly process, two-dimensional (2D) NMR was performed using Bruker Avance III 600 MHz. Furthermore, scanning electron microscopy (SEM) was performed to visualize the morphology of the self-assembled nanofibers.

The next data set concerns BM-MSCs. The data set is described as follows: Quantitative RT-PCR of osteogenic genes. The settings on record: after 30 days of culture. The format is cell-based, human. The protocol: Real-time polymerase chain reaction (PCR) values of the BM-MSC gene expressions of the bone morphogenetic protein (BMP-2) (FIG. 37), bone sialoprotein 2 (IBSP) (FIG. 35), osteopontin (OPN) (FIG. 38), osterix (OSX) (FIG. 39), and RUNX2 (FIG. 36) are evaluated after 30 days of culture. […] In FIGS. 35-39, * mens p<0.05 and ** means p<0.001, indicating statistical significance.
The BM-MSCs were cultured on different scaffolds with an osteogenic medium for 4 weeks. Total RNA was extracted using the TRIzol™ reagent. RNA concentration and purity were measured using a NanoDrop® 8000 spectrophotometer (Thermo Fisher®). Complementary DNA (cDNA) was synthesized using the ImProm-II Reverse Transcription System. Primer sequences were taken from previously published studies and are summarized in below. Relative quantification was performed using the comparative CT (2-ΔΔCT) and normalized against glyceraldehyde 3-phosphate dehydrogenase (GAPDH), which was used as a housekeeping gene to calculate the fold change in gene expression. BM-MSCs on a 2D culture using basal media were used as controls.

For another data set, the system named is MSCs. The data set is described as follows: SEM of cell-matrix interaction. The format is cell-based, human. The following applies: after 14 days of culture. The protocol: Scale bars are 5 and 10 μm, in the left and right panels respectively.
SEM was also used to determine the cell-matrix interaction. First, the cells encapsulated in hydrogels were fixed in 2.5% glutaraldehyde for overnight (4° C.) and then washed using PBS. The samples were subsequently incubated in 1% osmium tetroxide for one hour and washed with water. Afterwards, the dehydration was done by immersing them in increasing concentrations of ethanol: 30, 50, 70, 90 and 100%, 15 min each step. Then, the samples were processed in critical point dryer. The dried samples were then mounted and coated with 5 nm Ir thickness.

With “Ac-Ile-Val-Cha-Lys-NH2 (Ac-IV[Cha]K-NH2; not fully specified; printed as Ac-Ile-Val-Cha-Lys-NH2) [IVZK, nonaromatic self-assembling tetrapeptide (Z = cyclohexylalanine) forming hydrogel scaffold]”, in data set [1] (at the same concentration), the “G′ value, IVZK versus IVFK” value is “higher G′ value compared to IVFK”. For the same substance, the Storage modulus in data set [1] (peptide hydrogel 2 mg/mL) came to 10.00 ± 0.12 kPa; in data set [1] (peptide hydrogel 3 mg/mL), 17.21 ± 1.38 kPa; in data set [1] (peptide hydrogel 4 mg/mL), 29.77 ± 1.19 kPa; in data set [1] (peptide hydrogel 6 mg/mL), 43.03 ± 2.81 kPa; in data set [1] (peptide hydrogel 8 mg/mL), 75.21 ± 4.08 kPa. The “critical gelation concentration (CGC)” value in data set [2] (aqueous solution, 1× PBS) was determined as 2 mg/mL. In data set [2] (different peptide concentrations in 1×PBS, IVZK versus IVFK), the gelation time result is given as “less time to form the hydrogel, compared to IVFK”. Moreover, the OPN gene expression entry in the data set on BM-MSCs is “downregulated”. The “cell morphology by SEM” value with MSCs is “elongated spindlelike morphology”.
